# Where a SMILES comes first, the peptide text is derived from it. Side-chain parts run from the residue outwards. The star is where a group is joined. DTPA = O=C(O)CN(CCN(CC(=O)O)CC(=O)O)CCN(CC(=O)O)CC(=O)*; X1 = NC(=S)NN=CC(=O)*
# B1: PAM4: murine MUC1 monoclonal antibody developed with pancreatic cancer mucin from the xenografted RIP-1 human pancreatic carcinoma as immunogen (antibody, V domains shown)
# VL: DIVMTQSPAIMSASPGEKVTMTCSASSSVSSSYLYWYQQKPGSSPKLWIYSTSNLASGVPARFSGSGSGTSYSLTISSMEAEDAASYFCHQWNRYPYTFGGGTKLEIK
# VH: EVQLQESGPELVKPGASVKMSCKASGYTFPSYVLHWVKQKPGQGLEWIGYINPYNDGTQYNEKFKGKATLTSDKSSSTAYMELSRLTSEDSAVYYCARGFGGSYGFAYWGQGTLITVSA
# Key:
# CaPan1 tumor = test: Pre-targeting with bsMAb and radiolabeled peptide-haptens in CaPan1 tumor-bearing mice; settings: peptide pre-targeted with bsPAM4, 3-Hours
# Experimental: Mice were sacrificed at 3 and 24 hours after the administration of peptides and the % ID/g determined for the tumor and various tissues.
# [1] = system: Normal Adult Tissue Homogenates; test: PAM4 based enzyme immunoassay with tissue homogenates as antigens; assay type: binding, human
# Description: (§1) Normal pancreatic tissue, including ducts, ductules, acini, and islet cells, were negative for staining. A PAM4 based enzyme immunoassay with tissue homogenates as antigens generally supported the immunohistology data (Table 2). The PAM4 epitope was absent from normal pancreas and other nongastrointestinal tissues. In neoplastic tissues, PAM4 was reactive with twenty one out of twenty five ([…]) pancreatic cancers (Table 3). PAM4 reactivity appeared to correlate with the stage of tumor differentiation. […] Generally, poorly differentiated tumors represent less than 10% of all pancreatic cancers.
# CaPan1 = test: Biodistribution and dosimetry of radiolabeled PAM4, CaPan1 xenograft; settings: in vivo
# Experimental: Initial biodistribution studies of PAM4 were carried out in a series of four different xenografted human pancreatic tumors covering the range of expected differentiation. […] The biodistribution data were used to estimate potential radiation doses to the tumor of 12,230; 10,684; 6,835; and 15,843 cGy/mCi of injected dose to AsPc1, BxPc3, Hs766T and CaPan1, respectively. With an actual maximum tolerated dose (MTD) of 0.7 mCi, PAM4 could provide substantial rad dose to each of the xenografted tumor models. […] Potential radiation doses to the blood from PAM4 were 1.4-4.4 fold lower than from Ag8. […] Importantly, potential radiation doses to non-tumor tissues were minimal.
# The biodistribution of PAM4 was compared with an anti-CEA antibody, MN14, using the CaPan1 tumor model. The concentration of PAM4 within the tumor was much greater than the MN14 at early timepoints, yielding tumor:blood ratios at day three of 12.7±2.3 for PAM4 compared to 2.7±1.9 for MN14. […] This was due to a rapid clearance of PAM4 from the tumor, such that at later timepoints similar concentrations of the two antibodies were present within the tumors. A rapid clearance of PAM4 from the tumor was also noted in the BxPc3 and Hs766T but not AsPc1 tumor models. […] Results from studies on the metabolism of PAM4, indicate that after initial binding to the tumor cell, antibody is rapidly released, possibly being catabolized or being shed as an antigen:antibody complex. This might have had unfavorable implications for the use of the antibody in patients except that the blood clearance is also very rapid.
# This type of splenic targeting has been observed in the clinical application of the anti-mucin antibodies B72.3 and CC49. […] The latter would require the presence of immune complexes in the blood; however, these were not observed when specimens as early as five minutes and as late as seven days were examined by gel filtration (HPLC, GF-250 column); radiolabeled antibody eluted as native material. The former explanation seems more likely in view of the fact that the CaPan1 tumor produced large quantities of PAM4-reactive antigen, 100 to 1000-fold higher than for the other tumor cell lines examined. […] In any event, splenic targeting can be overcome by increasing the protein dose to 10 ug from the original 2 ug dose. A greater amount of the splenic entrapped antigen presumably was complexed with unlabeled PAM4 rather than radiolabeled antibody. Increasing the protein dose had no adverse effect upon targeting of PAM4 to the tumor or nontumor tissues.
# Pancreatic Tumors = test: Immunohistochemical reactivity of monoclonal antibodies with pancreatic tumors; assay type: binding, human; set-up: key to Immunohistochemical reactivity: −: Negative; +: 5–20% of tissue is stained; ++: 21–50% of tissue is stained; +++: >50% of tissue is stained
# Description: as §1
# (§2) These studies have shown the PAM4 reactivity and tissue distribution (both normal and cancer) to be unlike that reported for CA19.9, DUPAN2, SPAN1, Nd2, B72.3, and the Lewis antigens. […] When compared to CA19.9, DUPAN2, and aLe^a, PAM4 appears to be more restricted in its tissue distribution and it is reactive with a higher percentage of pancreatic tumors. Moreover, it gives a greater overall intensity of reaction at equivalent concentrations and is reactive with a higher percentage of cells within the tumors. […] Although it is recognized that specificity is dependent upon the type of assay employed and the range and number of tissues examined, the ability of PAM4 to discriminate between normal and neoplastic pancreatic tissue, its ability to react with a large percentage of the cancer specimens, as well as the high intensity of the reactions, were important rationales for pursuing developmental studies of clinical application.
# Neoplastic Tissues = test: Immunoperoxidase staining of neoplastic tissues with MAb PAM4; assay type: binding, human
# Description: as §1
# Normal Adult Tissues = test: Immunoperoxidase staining of normal adult tissues with MAb PAM4; assay type: binding, human
# Description: as §1
# tumors = test: Clinical studies with PAM4 MAb: targeting and dosimetry; assay type: in vivo, human; settings: patients
# [2] = system: chronic pancreatitis specimens; test: Immunohistochemistry of chronic pancreatitis specimens; assay type: binding, human; settings: twelve specimens
# Description: as §2
molecule,measurement,setting,value
"CC(=O)N[C@@H](CCCCNC(=O)CN(CCN(CCN(CC(=O)O)CC(=O)O)CC(=O)O)CC(=O)O)C(=O)N[C@@H](Cc1ccc(O)cc1)C(=O)N[C@@H](CCCCNC(=O)CN(CCN(CCN(CC(=O)O)CC(=O)O)CC(=O)O)CC(=O)O)C(=O)N[C@@H](CCCCNC(=O)[C@H](CS)NC(=O)C=NNC(N)=S)C(N)=O [^99mTc-IMP192, metal not drawn] (Ac-K(DTPA)YK(DTPA)K([Cys-X1])-NH2; N-terminus and C-terminus assumed)","Tumor: Non-Tumor Tissue Ratio, Mean",CaPan1 tumor; Blood,9.93
same,"Tumor: Non-Tumor Tissue Ratio, Mean",CaPan1 tumor; Kidney,8.13
same,"Tumor: Non-Tumor Tissue Ratio, Mean",CaPan1 tumor; Liver,16.66
same,"Tumor: Non-Tumor Tissue Ratio, Mean",CaPan1 tumor; Lung,15.75
same,"Tumor: Non-Tumor Tissue Ratio, Mean",CaPan1 tumor; Pancreas,73.29
same,"Tumor: Non-Tumor Tissue Ratio, Mean",CaPan1 tumor; Spleen,14.62
same,"Tumor: Non-Tumor Tissue Ratio, Mean",CaPan1 tumor; Tumor,1.00
"CC(=O)N[C@@H](Cc1ccccc1)C(=O)N[C@@H](CCCCNC(=O)CN(CCN(CCN(CC(=O)O)CC(=O)O)CC(=O)O)CC(=O)O)C(=O)N[C@@H](Cc1ccc(O)cc1)C(=O)N[C@@H](CCCCNC(=O)CN(CCN(CCN(CC(=O)O)CC(=O)O)CC(=O)O)CC(=O)O)C(N)=O [^111In-IMP156, metal not drawn] (Ac-FK(DTPA)YK(DTPA)-NH2; N-terminus and C-terminus assumed)","Tumor: Non-Tumor Tissue Ratio, Mean",CaPan1 tumor; Blood,36.47
same,"Tumor: Non-Tumor Tissue Ratio, Mean",CaPan1 tumor; Bone,123.24
same,"Tumor: Non-Tumor Tissue Ratio, Mean",CaPan1 tumor; Kidney,7.79
same,"Tumor: Non-Tumor Tissue Ratio, Mean",CaPan1 tumor; Liver,36.07
same,"Tumor: Non-Tumor Tissue Ratio, Mean",CaPan1 tumor; Lung,44.55
same,"Tumor: Non-Tumor Tissue Ratio, Mean",CaPan1 tumor; Pancreas,155.55
same,"Tumor: Non-Tumor Tissue Ratio, Mean",CaPan1 tumor; Spleen,33.40
same,"Tumor: Non-Tumor Tissue Ratio, Mean",CaPan1 tumor; Tumor,1.00
same,"Tumor: Non-Tumor Tissue Ratio, Mean",CaPan1 tumor; W. Bone,378.00
B1,PAM4 reactivity by EIA,"[1]; Adrenal, mean from two autopsy specimens",1.3 ug/g tissues
same,PAM4 reactivity by EIA,"[1]; Bladder, mean from two autopsy specimens",4.9 ug/g tissues
same,PAM4 reactivity by EIA,[1]; CaPan1 Pancreatic Tumor,569 ug/g tissues
same,PAM4 reactivity by EIA,"[1]; Colon, mean from two autopsy specimens",74.5 ug/g tissues
same,PAM4 reactivity by EIA,"[1]; Duodenum, mean from two autopsy specimens",44.7 ug/g tissues
same,PAM4 reactivity by EIA,"[1]; Esophagus, mean from two autopsy specimens",8.1 ug/g tissues
same,PAM4 reactivity by EIA,"[1]; Gallbladder, mean from two autopsy specimens",5.6 ug/g tissues
same,PAM4 reactivity by EIA,"[1]; Heart, mean from two autopsy specimens",3.7 ug/g tissues
same,PAM4 reactivity by EIA,"[1]; Jejunum, mean from two autopsy specimens",60.6 ug/g tissues
same,PAM4 reactivity by EIA,"[1]; Kidney, mean from two autopsy specimens",6.6 ug/g tissues
same,PAM4 reactivity by EIA,"[1]; Liver, mean from two autopsy specimens",0.0 ug/g tissues
same,PAM4 reactivity by EIA,"[1]; Pancreas, mean from two autopsy specimens",6.4 ug/g tissues
same,PAM4 reactivity by EIA,"[1]; Spleen, mean from two autopsy specimens",3.4 ug/g tissues
same,PAM4 reactivity by EIA,"[1]; Stomach, mean from two autopsy specimens",61.3 ug/g tissues
same,PAM4 reactivity by EIA,"[1]; Testes, mean from two autopsy specimens",3.9 ug/g tissues
same,PAM4 reactivity by EIA,"[1]; Thyroid, mean from two autopsy specimens",3.5 ug/g tissues
same,PAM4 reactivity by EIA,"[1]; Ureter, mean from two autopsy specimens",2.6 ug/g tissues
same,concentration of radiolabeled PAM4 within the CaPan1 tumor on increasing protein dose,CaPan1,more than doubled
same,"dose to the tumor, fold higher than MN14",CaPan1,3.2 fold
same,splenic uptake,CaPan1,3.1-7.5 % ID/g
same,tumor:blood ratio,CaPan1,12.7±2.3
same,"Immunohistochemical reactivity, TOTAL (positive/examined)",Pancreatic Tumors; all pancreatic tumors,21/25
same,Immunohistochemical reactivity,"Pancreatic Tumors; pancreatic tumor 1, differentiation W",+++ (+++: >50% of tissue is stained)
same,Immunohistochemical reactivity,"Pancreatic Tumors; pancreatic tumor 2, differentiation M",++ (++: 21–50% of tissue is stained)
same,Immunohistochemical reactivity,"Pancreatic Tumors; pancreatic tumor 3, differentiation M",+ (+: 5–20% of tissue is stained)
same,Immunohistochemical reactivity,"Pancreatic Tumors; pancreatic tumor 4, differentiation M",+++ (+++: >50% of tissue is stained)
same,Immunohistochemical reactivity,"Pancreatic Tumors; pancreatic tumor 5, differentiation M",++ (++: 21–50% of tissue is stained)
same,Immunohistochemical reactivity,"Pancreatic Tumors; pancreatic tumor 6, differentiation M",+ (+: 5–20% of tissue is stained)
same,Immunohistochemical reactivity,"Pancreatic Tumors; pancreatic tumor 7, differentiation M, metastatic tissue",+++ (+++: >50% of tissue is stained)
same,Immunohistochemical reactivity,"Pancreatic Tumors; pancreatic tumor 8, differentiation M",+ (+: 5–20% of tissue is stained)
same,Immunohistochemical reactivity,"Pancreatic Tumors; pancreatic tumor 9, differentiation M",++ (++: 21–50% of tissue is stained)
same,Immunohistochemical reactivity,"Pancreatic Tumors; pancreatic tumor 10, differentiation M, metastatic tissue",++ (++: 21–50% of tissue is stained)
same,Immunohistochemical reactivity,"Pancreatic Tumors; pancreatic tumor 11, differentiation M",++ (++: 21–50% of tissue is stained)
same,Immunohistochemical reactivity,"Pancreatic Tumors; pancreatic tumor 12, differentiation M",++ (++: 21–50% of tissue is stained)
same,Immunohistochemical reactivity,"Pancreatic Tumors; pancreatic tumor 13, differentiation M",+ (+: 5–20% of tissue is stained)
same,Immunohistochemical reactivity,"Pancreatic Tumors; pancreatic tumor 14, differentiation M",++ (++: 21–50% of tissue is stained)
same,Immunohistochemical reactivity,"Pancreatic Tumors; pancreatic tumor 15, differentiation M",+++ (+++: >50% of tissue is stained)
same,Immunohistochemical reactivity,"Pancreatic Tumors; pancreatic tumor 16, differentiation M",+ (+: 5–20% of tissue is stained)
same,Immunohistochemical reactivity,"Pancreatic Tumors; pancreatic tumor 17, differentiation M",−
same,Immunohistochemical reactivity,"Pancreatic Tumors; pancreatic tumor 18, differentiation M",++ (++: 21–50% of tissue is stained)
same,Immunohistochemical reactivity,"Pancreatic Tumors; pancreatic tumor 19, differentiation M",+++ (+++: >50% of tissue is stained)
same,Immunohistochemical reactivity,"Pancreatic Tumors; pancreatic tumor 20, differentiation M",+ (+: 5–20% of tissue is stained)
same,Immunohistochemical reactivity,"Pancreatic Tumors; pancreatic tumor 21, differentiation M",+++ (+++: >50% of tissue is stained)
same,Immunohistochemical reactivity,"Pancreatic Tumors; pancreatic tumor 22, differentiation P",+ (+: 5–20% of tissue is stained)
same,Immunohistochemical reactivity,"Pancreatic Tumors; pancreatic tumor 23, differentiation P",−
same,Immunohistochemical reactivity,"Pancreatic Tumors; pancreatic tumor 24, differentiation P",−
same,Immunohistochemical reactivity,"Pancreatic Tumors; pancreatic tumor 25, differentiation P",−
same,tumors positive,Pancreatic Tumors; poorly differentiated pancreatic tumors,one out of four
same,pancreatic cancers reactive,Pancreatic Tumors; twenty one out of twenty five pancreatic cancers,85%
same,tumors positive,Pancreatic Tumors; well and moderately differentiated pancreatic tumors,twenty out of twenty one
same,Positive/Total,Neoplastic Tissues; Breast neoplastic tissue,0/30
same,Positive/Total,Neoplastic Tissues; Colon neoplastic tissue,10/26
same,Positive/Total,Neoplastic Tissues; Kidney neoplastic tissue,0/4
same,Positive/Total,Neoplastic Tissues; Liver neoplastic tissue,0/10
same,Positive/Total,Neoplastic Tissues; Lung neoplastic tissue,1/15
same,Positive/Total,Neoplastic Tissues; Ovarian neoplastic tissue,0/10
same,Positive/Total,Neoplastic Tissues; Pancreas neoplastic tissue,21/25
same,Positive/Total,Neoplastic Tissues; Prostate neoplastic tissue,0/4
same,Positive/Total,Neoplastic Tissues; Stomach neoplastic tissue,1/5
same,specimens reactive with PAM4 by immunohistochemistry,Neoplastic Tissues; colorectal cancer specimens,40%
same,Staining Reaction,Normal Adult Tissues; Colon,+ goblet cells
same,Staining Reaction,Normal Adult Tissues; Duodenum,+ goblet cells
same,Staining Reaction,Normal Adult Tissues; Ileum,+ goblet cells
same,Staining Reaction,Normal Adult Tissues; Jejunum,+ goblet cells
same,Staining Reaction,Normal Adult Tissues; Stomach,+ mucus secreting cells
same,targeting of lesions,tumors,a majority of the lesions were targeted
same,uptake in normal tissues,tumors,no indication of uptake in normal tissues
same,reactivity with chronic pancreatitis specimens,[2],only weakly reactive with three out of twelve
